Tests used:
[1] = biological target: T1, autoimmune regulator (AIRE), mouse, endogenous in B cells (mouse, UniProt Q9Z0E3 1-552, limits assumed); experiment: co-IP, mouse splenic B cell lysates
T1 construct: Endogenous protein in mouse splenic B cells and CH12 cells
T1 sequence: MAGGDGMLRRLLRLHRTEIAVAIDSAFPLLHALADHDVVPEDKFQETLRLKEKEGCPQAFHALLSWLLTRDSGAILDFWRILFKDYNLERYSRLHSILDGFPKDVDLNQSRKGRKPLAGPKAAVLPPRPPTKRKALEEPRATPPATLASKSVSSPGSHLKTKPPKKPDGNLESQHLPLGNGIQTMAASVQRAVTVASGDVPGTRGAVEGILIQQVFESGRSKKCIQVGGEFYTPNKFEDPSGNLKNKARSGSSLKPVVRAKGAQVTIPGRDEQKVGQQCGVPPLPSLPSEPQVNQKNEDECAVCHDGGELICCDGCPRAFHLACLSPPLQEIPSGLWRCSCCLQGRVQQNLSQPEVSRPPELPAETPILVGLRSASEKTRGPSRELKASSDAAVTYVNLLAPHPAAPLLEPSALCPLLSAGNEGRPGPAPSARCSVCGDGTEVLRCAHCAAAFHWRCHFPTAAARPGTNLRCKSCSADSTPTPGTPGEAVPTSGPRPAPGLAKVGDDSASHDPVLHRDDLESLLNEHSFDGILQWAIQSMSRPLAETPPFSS

[2] = biological target: T2, Bcl10, endogenous in the human Ramos B cell line (human, UniProt O95999 1-233); experiment: co-IP in Ramos B cells unstimulated or stimulated with TNF for 24 h
T2 sequence (looked up): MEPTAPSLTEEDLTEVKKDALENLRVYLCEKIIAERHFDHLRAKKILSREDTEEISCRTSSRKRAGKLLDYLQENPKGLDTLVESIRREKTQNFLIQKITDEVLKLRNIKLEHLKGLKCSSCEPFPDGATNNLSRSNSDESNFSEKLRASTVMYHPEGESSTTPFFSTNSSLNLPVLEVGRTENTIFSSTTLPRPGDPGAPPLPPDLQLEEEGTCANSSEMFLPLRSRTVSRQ

B1: activation-induced cytidine deaminase (AID), mouse, endogenous in B cells (enzyme, UniProt Q9WVE0 1-198, looked up)
chain: MDSLLMKQKKFLYHFKNVRWAKGRHETYLCYVVKRRDSATSCSLDFGHLRNKSGCHVELLFLRYISDWDLDPGRCYRVTWFTSWSPCYDCARHVAEFLRWNPNLSLRIFTARLYFCEDRKAEPEGLRRLHRAGVQIGIMTFKDYFYCWNTFVENRERTFKAWEGLHENSVRLTRQLRRILLPLYEVDDLRDAFRMLGF
notes: Endogenous protein in mouse splenic B cells and CH12 cells
- binding result [1]: binds

B2: activation-induced cytidine deaminase (AID), human, endogenous in B cells (enzyme)
chain: MDSLLMNRRKFLYQFKNVRWAKGRRETYLCYVVKRRDSATSFSLDFGYLRNKNGCHVELLFLRYISDWDLDPGRCYRVTWFTSWSPCYDCARHVADFLRGNPNLSLRIFTARLYFCEDRKAEPEGLRRLHRAGVQIAIMTFKDYFYCWNTFVENHERTFKAWEGLHENSVRLPRQLRRILLPLYEVDDLRDAFRTWGR
notes: Endogenous protein in lysates of human tonsillar B cells and Ramos B cells
- binding result [2]: no binding

Source: patent publication US20190062705A1 (WAYNE STATE UNIVERSITY, published 2019)
